Measurements from article PMC11435379.
Where “and” joins values, the source holds several entries; their conditions need not be identical. Equal entries are not always repeated.

Experiments:
[1] = biological target: Cetuximab (Erbitux, 5 mg/mL); experiment: SEC; SE/UHPLC-UV as a10; sample exposed to daylight for 24 h
[2] = biological target: Cetuximab (Erbitux, 5 mg/mL); experiment: SEC; SE/UHPLC-UV as a10; sample exposed to accelerated light (250 W/m^2) for 24 h

- stoichiometry N [1]: 3
- stoichiometry N [2]: 3 and 8 and 5
Substance: Cetuximab (Erbitux, 5 mg/mL) (antibody)
